Where two headings read alike, the source gives them in different places.
Tests used:
LPECG = assay: In vitro sortase kinetics HPLC assay, LPECG substrate; assay type: biochemical
Experimental: See below for details on sortase expression and purification, and on the synthesis of Abz-LPETGK(Dnp)-CONH2 (SEQ ID NO: 19). […] Reactions were initiated with the addition of enzyme and incubated at 22.5° C. for 3 to 20 minutes before quenching with 0.5 volumes of 1 M HCl. Five to ten nmol of peptide from the quenched reactions were injected onto an analytical reverse-phase Eclipse XDB-C18 HPLC column (4.6×150 mm, 5 μm, Agilent Technologies) and chromatographed using a gradient of 10 to 65% acetonitrile with 0.1% TFA in 0.1% aqueous TFA over 13 minutes. Retention times under these conditions for the Abz-LPETGK(Dnp)-CONH2 (SEQ ID NO: 19) substrate, the released GKDnp peptide, and the Abz-LPETGGG-COOH (SEQ ID NO: 20) product were 12.8, 10.4, and 9.1 min, respectively. To calculate the percent conversion, the ratio of the integrated areas of the Abz-LPETGGG-COOH (SEQ ID NO: 20) and Abz-LPETGK(Dnp)-CONH2 (SEQ ID NO: 19) peptide Abs220 peaks was compared to a standard curve generated by mixing the product and starting peptide in known ratios. To determine […] and Km, reaction rates were fit to the Michaelis-Menten equation using OriginPro 7.0 software. All kinetics values reported represent the average of at least three measurements. Percent conversion was also calculated by using the ratio of the integrated areas of the GK(Dnp)-CONH2 and Abz-LPETGK(Dnp)-CONH2 peptide Abs355 peaks were compared directly (Example 5). To determine kcat and Km, LPETG, reaction rates were fit to the Michaelis-Menten equation using Microsoft Excel using the Solver add-in. To determine Km,GGG and KH, reaction rates were fit to the modified Michaelis-Menten, for which KH is as defined when KH<<Km,GGG.
Assays to determine eSrtA, eSrtA(2A-9) and eSrtA(4S-9) specificity were performed by preparing 10 μM stocks of Abz-LXEXGK(Dnp) (SEQ ID NO: 75) peptides in 300 mM Tris pH 7.5, 150 mM NaCl, 5 mM CaCl2, 5% v/v DMSO, and 100 mM Gly-Gly-Gly-COOH (GGG). Reactions were performed by adding eSrtA(2A-9) to a final concentration of 450 nM, eSrtA(4S-9) to a final concentration of 115 nM or eSrtA to a final concentration of 47.5 nM and a final volume of 100 μL, then incubating at 22.5° C. for 15 minutes. Reactions were quenched by the addition of 0.2 volumes of 5 M HCl, then were injected onto an analytical reverse-phase Eclipse XDB-C18 HPLC column (4.6×150 mm, 5 μm, Agilent Technologies) and chromatographed using a gradient of 10 to 65% acetonitrile with 0.1% TFA in 0.1% aqueous TFA over 13 minutes. Retention times under these conditions for the Abz-LPETGK(Dnp)-CONH2 (SEQ ID NO: 19) substrate, the released GKDnp peptide, and the Abz-LPETGGG-COOH (SEQ ID NO: 20) product were 12.8, 10.4, and 9.1 min, respectively, while the remaining Abz-LXEXGK(Dnp)-CONH2 (SEQ ID NO: 74) substrates varied in retention time between 9 and 13 minutes. To calculate the percent conversion, the ratio of the integrated areas of the GK(Dnp)-CONH2 and Abz-LPETGK(Dnp)-CONH2 (SEQ ID NO: 19) peptide Abs355 peaks were compared directly. Subsequent determination of kcat/Km and KH were performed as described for in vitro SrtA characterization.
The original pentamutant comprising the mutations P94R, D160N, D165A, K190E, and K196T is referred to as eSrtA. Sortase variants herein were evolved using eSrtA as the parent enzyme in the evolution experiments. In some cases, an evolved sortase comprises a N160K mutation instead of a D160N or a T196S mutation instead of a K196T. Parameters are reported with their standard deviations as determined from three technical replicates. kcat, Km and kcat/Km parameters were determined at 100 mM GGG concentration, while Km,GGG and KH parameters were determined at 1 mM concentration of the listed substrate.

[1] = test system: GGG-functionalized amphiphilic diblock polypeptide; assay: GGG-diblock functionalization; assay type: biochemical; conditions: Alexa Fluor 488-LAETG or 647-LPESG, 1 hour
Experimental: Amphiphilic diblock polypeptide (Diblock) was co-incubated with Alexa Fluor® 488-LAETG (SEQ ID NO: 5), Alexa Fluor® 647-LPESG (SEQ ID NO: 3), eSrtA(2A-9), and/or eSrtA(4S-9). The reactions were analyzed by denaturing gel electrophoresis and visualized using either Coomassie stain (top), 488 fluorescence (bottom, blue), or 647 fluorescence (bottom, red). Magenta denotes the overlap of blue and red fluorescence signals.
GGG-functionalized recombinant amphiphilic diblock polypeptide (Diblock), GGG-Diblock, was used as a substrate to test the orthogonality of the two evolved sortases in solution. GGG-Diblock based on elastin-mimetic polypeptide sequences was prepared as previously described (Kim et al. Self-Assembly of Thermally Responsive Amphiphilic Diblock Copolypeptides into Spherical Micellar Nanoparticles. Angewandte Chemie International Edition 49, 4257-4260, doi:10.1002/anie.201001356 (2010)) with slight changes in sequence by genetically incorporating an N-terminal triglycine motif. A complete amine acid sequence is GGG-VPGEG-[(VPGVG)(VPGEG)(VPGVG)(VPGEG)(VPGVG)]10-CCCCGG-[(IPGVG)2VPGYG(IPGVG)2]15-VPGYG (SEQ ID NO: 75). In a 0.6 mL Eppendorf tube, GGG-functionalized Diblock (10 μM) was mixed with fluorophore-peptide (0.1 μM), evolved sortase (15 μM) and CaCl2 (100 mM), then reacted for 1 hour at room temperature. […]

[2] = Sub LPECG, 100 mM GGG, read-out: Km

Sequence of GGG-functionalized amphiphilic diblock polypeptide (as listed by the source): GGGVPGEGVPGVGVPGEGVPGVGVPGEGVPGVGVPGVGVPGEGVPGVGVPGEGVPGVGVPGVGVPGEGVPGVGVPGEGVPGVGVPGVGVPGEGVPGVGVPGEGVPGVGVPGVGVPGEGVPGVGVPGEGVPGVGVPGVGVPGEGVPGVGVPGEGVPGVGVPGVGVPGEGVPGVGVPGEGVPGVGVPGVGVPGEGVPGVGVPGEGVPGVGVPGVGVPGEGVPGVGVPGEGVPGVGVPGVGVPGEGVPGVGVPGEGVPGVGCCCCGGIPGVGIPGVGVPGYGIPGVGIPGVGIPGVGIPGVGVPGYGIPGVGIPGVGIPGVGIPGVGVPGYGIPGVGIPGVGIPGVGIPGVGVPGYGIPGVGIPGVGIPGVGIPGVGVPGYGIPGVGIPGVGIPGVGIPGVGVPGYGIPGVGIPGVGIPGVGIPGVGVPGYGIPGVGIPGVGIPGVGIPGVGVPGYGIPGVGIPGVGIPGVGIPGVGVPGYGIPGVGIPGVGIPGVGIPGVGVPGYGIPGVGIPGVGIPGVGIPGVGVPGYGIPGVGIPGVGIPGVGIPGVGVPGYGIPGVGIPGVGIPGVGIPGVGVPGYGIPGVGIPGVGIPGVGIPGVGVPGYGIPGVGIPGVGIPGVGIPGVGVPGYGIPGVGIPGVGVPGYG

Molecule | activity for LPECG compared with LPETG (LPECG) | KH (LPECG; 1 mM LPECG) | Km (LPECG; 1 mM LPECG, read-out: Km,GGG) | Kcat (Hz) (LPECG; Sub LPECG, 100 mM GGG) | Km (LPECG; [2]) | peptide-diblock conjugation [1]
eSrtA (protein) QAKPQIPKDKSKVAGYIEIPDADIKEPVYPGPATREQLNRGVSFAEENESLDDQNISIAGHTFIDRPNYQFTNLKAAKKGSMVYFKVGNETRKYKMTSIRNVKPTAVEVLDEQKGKDKQLTLITCDDYNEETGVWETRKIFVATEVK | exceeds that of LPETG | 620 ± 150 µM | 57 ± 33 mM | 3.5 ± 0.3 Hz | 0.0725 ± 0.0056 mM | 
eSrtA(4S-9): P94R, N98D, S102C, A104V, A118T, F122A, K134R, F144L, D160N, D165A, I182V, E189F, K190E, K196T (protein) QAKPQIPKDKSKVAGYIEIPDADIKEPVYPGPATREQLDRGVCFVEENESLDDQNISITGHTAIDRPNYQFTNLRAAKKGSMVYLKVGNETRKYKMTSIRNVKPTAVEVLDEQKGKDKQLTLVTCDDYNFETGVWETRKIFVATEVK | exceeds that of LPETG | 120 ± 23 µM | 55 ± 1.4 mM | 5.0 ± 0.6 Hz | 0.069 ± 0.013 mM | no detectable off-target substrate conjugation
eSrtA(2A-9): P94R, S102C, A104H, E105D, K138P, K152I, N160K, K162H, T164N, D165A, K173E, I182V, K190E, T196S (protein) QAKPQIPKDKSKVAGYIEIPDADIKEPVYPGPATREQLNRGVCFHDENESLDDQNISIAGHTFIDRPNYQFTNLKAAKPGSMVYFKVGNETRIYKMTSIRKVHPNAVEVLDEQEGKDKQLTLVTCDDYNEETGVWESRKIFVATEVK |  |  |  |  |  | no detectable off-target substrate conjugation
